Reference: patent publication US10967068B2, “Stability-modulating linkers for use with antibody drug conjugates” (priority 2014, dated 2021)
Read-outs that look alike come from different tables or passages of the source. *1 amine or outer side, *2 acyl side, *3 side chain or, on linkers, in order; H or OH if unused. Where a SMILES comes first, the peptide text is derived from it. [ ]: non-standard residue; d: D form. The star is where a group is joined. Dolaproine = CO[C@@H]([C@@H]1CCCN1)[C@@H](C)C(=O)O; Dil = CC[C@H](C)[C@H](NC)[C@@H](CC(=O)O)OC; PABC = O=C(OCc1ccc(N[*:1])cc1)[*:2]; Doe = c1ccc(C[C@H](N*)c2nccs2)cc1; Cit = NC(=O)NCCC[C@H](N)C(=O)O; Isobutyryl = CC(C)C(=O)*; dLac = C[C@@H](O)C(=O)O; Aib = CC(C)(N)C(=O)O

Experiments:
[1] = Stability in SCID mouse plasma of linker-payloads conjugated to Combo_Rd4_0.6nM_C29 anti-BCMA antibody; assay type: in vitro ADME; conditions: LCQ05 tag
[2] = In Vitro Stability Assay—Mouse Plasma; assay type: in vitro ADME; conditions: for Conjugate stability (%): % DAR remaining after plasma 3 or 4.5 days; for DAR: before plasma incubation
[3] = molecular target: T1, mouse plasma enzyme (Mus musculus, UniProt P23953); assay type: biochemical
T1 construct: 100-200 ug of ADC were incubated in mouse plasma (provided by Bioreclamation); tissue Bioreclamation; host or cells: mouse plasma
T1 sequence (P23953 19-554): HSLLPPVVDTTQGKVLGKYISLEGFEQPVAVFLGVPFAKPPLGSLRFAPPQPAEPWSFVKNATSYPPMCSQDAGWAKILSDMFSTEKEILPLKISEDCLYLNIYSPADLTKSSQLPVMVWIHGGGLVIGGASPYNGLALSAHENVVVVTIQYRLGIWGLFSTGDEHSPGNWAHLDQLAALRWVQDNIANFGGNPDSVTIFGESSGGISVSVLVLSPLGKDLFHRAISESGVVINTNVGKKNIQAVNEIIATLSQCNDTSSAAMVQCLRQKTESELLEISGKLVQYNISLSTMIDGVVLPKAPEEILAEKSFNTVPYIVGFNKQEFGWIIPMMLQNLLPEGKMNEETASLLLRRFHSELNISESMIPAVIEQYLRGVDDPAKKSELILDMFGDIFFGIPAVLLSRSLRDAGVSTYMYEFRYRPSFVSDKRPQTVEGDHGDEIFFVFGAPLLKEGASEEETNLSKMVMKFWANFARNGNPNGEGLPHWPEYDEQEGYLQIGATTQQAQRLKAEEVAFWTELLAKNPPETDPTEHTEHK
Text: First, Balb/c serum (BioreclamationIVT) was depleted of IgG and albumin using commercially available MabSelect Protein A and Protein G resins (GE Healthcare), followed by Qproteome Murine Albumin Depletion Kit (Qiagen). The depleted serum was then subjected to sequential precipitation with ammonium sulfate. Fractions with the highest linker hydrolase activity were then applied to cation exchange HiTrap SP column (GE Healthcare) using step gradient elutions with sodium chloride. After that, SP fractions with the highest activity were applied to anion exchange HiTrap Q column (GE Healthcare) using step gradient elutions with sodium chloride. Fractions with the highest hydrolase activity were then combined and size fractionated using Superdex 200 column (GE Healthcare). […] To verify the correct identification of mouse Carboxylesterase 1C as the plasma enzyme responsible for linker cleavage, the recombinant protein was expressed in Expi 293 cells, and purified using a HIS tag following standard protocols.

| Compound | DAR after plasma incubation for 3 to 4.5 days ([2]; attachment position L11B) | Conjugate stability (%) ([2]; attachment position L11B) | DAR ([2]; attachment position L11B) | further results |
| --- | --- | --- | --- | --- |
| Ac-Lys-Val-Cit-PABC-0101 [reference compound] | – | – | – | DAR ([1]; Combo_Rd4_0.6nM_C29 anti-BCMA antibody, before incubation, HIC): 2.0; Conjugate stability (%) ([1]; anti-BCMA antibody, % DAR remaining after SCID mouse plasma 4.5 days): 99%; DAR after plasma incubation for 4.5 days ([1]; anti-BCMA antibody, SCID mouse plasma): 1.98; DAR after plasma incubation for 3 to 4.5 days ([2]; attachment position H16): 1.96; Conjugate stability (%) ([2]; attachment position H16): 100%; DAR ([2]; attachment position H16): 1.94 |
| O=[N+]([O-])c1ccc(OP(=O)(O)Oc2ccc([N+](=O)[O-])cc2)cc1 [BNPP] | – | – | – | inhibition of the mouse plasma enzyme (linker cleavage) [3]: inhibited |
| Cl.NCCc1ccc(S(=O)(=O)F)cc1 [Pefabloc] | – | – | – | inhibition of the mouse plasma enzyme (linker cleavage) ([3]; 1 mM, in vitro stability assay with anti-Trop2 L11B C6 vc0101 conjugate as substrate): inhibited |
| CC[C@H](C)[C@@H]([C@@H](CC(=O)N1CCC[C@H]1[C@H](OC)[C@@H](C)C(=O)N[C@@H](Cc1ccccc1)c1nccs1)OC)N(C)C(=O)[C@@H](NC(=O)C(C)(C)NC(=O)OCc1ccc(NC(=O)[C@H](CCCNC(N)=O)NC(=O)[C@@H](NC(=O)[C@H](CCCCN)NC(=O)[C@@H](C)O)C(C)C)cc1)C(C)C [Example 41, N˜2˜-[(2R)-2-hydroxypropanoyl]-L-lysylvalyl-N-{4-[(8S,11S,12R)-11-[(2S)-butan-2-yl]-12-(2-{(2S)-2-[(1R,2R)-1-methoxy-2-methyl-3-oxo-3-{[(1S)-2-phenyl-1-(1,3-thiazol-2-yl)ethyl]amino}propyl]pyrrolidin-1-yl}-2-oxoethyl)-5,5,10-trimethyl-3,6,9-trioxo-8-(propan-2-yl)-2,13-dioxa-4,7,10-triazatetradec-1-yl]phenyl}-N˜5˜-carbamoyl-L-ornithinamide] (H-[dLac]KV[Cit][PABC][Aib]V[Dil][Dolaproine]-Doe) | 0.91 | 49 | 1.86 | – |
| AcLys-vc0101 [Example 11, reference compound] | – | – | 1.87 | DAR ([2]; attachment position H7C): 1.90; DAR ([2]; attachment position H8A): 1.82; DAR ([2]; attachment position H10): 1.62; DAR ([2]; attachment position LCQ04): 1.88 |
| CC[C@H](C)[C@@H]([C@@H](CC(=O)N1CCC[C@H]1[C@H](OC)[C@@H](C)C(=O)N[C@@H](Cc1ccccc1)c1nccs1)OC)N(C)C(=O)[C@@H](NC(=O)C(C)(C)NC(=O)OCc1ccc(NC(=O)[C@H](CCCNC(N)=O)NC(=O)[C@@H](NC(=O)[C@H](CCCCN)NC(=O)C(C)(C)N)C(C)C)cc1)C(C)C [Example 31, 2-methylalanyl-L-lysylvalyl-N-{4-[(8S,11S,12R)-11-[(2S)-butan-2-yl]-12-(2-{(2S)-2-[(1R,2R)-1-methoxy-2-methyl-3-oxo-3-{[(1S)-2-phenyl-1-(1,3-thiazol-2-yl)ethyl]amino}propyl]pyrrolidin-1-yl}-2-oxoethyl)-5,5,10-trimethyl-3,6,9-trioxo-8-(propan-2-yl)-2,13-dioxa-4,7,10-triazatetradec-1-yl]phenyl}-N˜5˜-carbamoyl-L-ornithinamide] (H-[Aib]KV[Cit][PABC][Aib]V[Dil][Dolaproine]-Doe) | 0.03 | 2 | 1.77 | – |
| CC[C@H](C)[C@@H]([C@@H](CC(=O)N1CCC[C@H]1[C@H](OC)[C@@H](C)C(=O)N[C@@H](Cc1ccccc1)c1nccs1)OC)N(C)C(=O)[C@@H](NC(=O)C(C)(C)NC(=O)OCc1ccc(NC(=O)[C@H](CCCNC(N)=O)NC(=O)[C@@H](NC(=O)[C@H](CCCCN)NC(=O)C(C)C)C(C)C)cc1)C(C)C [Example 7, N˜2˜-(2-Methylpropanoyl)-L-lysyl-L-valyl-N-{4-[(8S,11S,12R)-11-[(2S)-butan-2-yl]-12-(2-{(2S)-2-[(1R,2R)-1-methoxy-2-methyl-3-oxo-3-{[(1S)-2-phenyl-1-(1,3-thiazol-2-yl)ethyl]amino}propyl]pyrrolidin-1-yl}-2-oxoethyl)-5,5,10-trimethyl-3,6,9-trioxo-8-(propan-2-yl)-2,13-dioxa-4,7,10-triazatetradec-1-yl]phenyl}-N˜5˜-carbamoyl-L-ornithinamide] (Isobutyryl-KV[Cit][PABC][Aib]V[Dil][Dolaproine]-Doe) | 0 | 0 | 1.51 | – |
| CC[C@H](C)[C@@H]([C@@H](CC(=O)N1CCC[C@H]1[C@H](OC)[C@@H](C)C(=O)N[C@@H](Cc1ccccc1)c1nccs1)OC)N(C)C(=O)[C@@H](NC(=O)C(C)(C)NC(=O)OCc1ccc(NC(=O)[C@H](CCCNC(N)=O)NC(=O)[C@@H](NC(=O)[C@H](CCCCN)NC(=O)[C@@H](C)N)C(C)C)cc1)C(C)C [Example 35, D-alanyl-L-lysylvalyl-N-{4-[(8S,11S,12R)-11-[(2S)-butan-2-yl]-12-(2-{(2S)-2-[(1R,2R)-1-methoxy-2-methyl-3-oxo-3-{[(1S)-2-phenyl-1-(1,3-thiazol-2-yl)ethyl]amino}propyl]pyrrolidin-1-yl}-2-oxoethyl)-5,5,10-trimethyl-3,6,9-trioxo-8-(propan-2-yl)-2,13-dioxa-4,7,10-triazatetradec-1-yl]phenyl}-N˜5˜-carbamoyl-L-ornithinamide] (H-[dA]KV[Cit][PABC][Aib]V[Dil][Dolaproine]-Doe) | 1.07 | 58 | 1.82 | – |
